The stoichiometry N is the number of molecules, sites or subunits per partner or assembly.

The results in this text go back to paper PMC9068512.

The target in this assay is modified calcium-permeable rat GluA2flip subunit with Q586 at the Q/R site (GluA2*), as the GluA2 portion of the GluA2–γ2 fusion (rat) (UniProt P19491). The assay can be described thus: cryo-EM structure; purified GluA2–γ2 fusion in 150 mM NaCl, 20 mM Tris-HCl pH 8.0, 0.05% digitonin, supplemented with 20 µM Glu and 100 µM CTZ; seven LBD–TMD reconstructions (NNNN, GNNN, GNGN1, GNGN2, GGNN, GGGN, GGGG).

As for “modified calcium-permeable rat GluA2flip subunit with Q586 at the Q/R site (GluA2*), as the GluA2 portion of the GluA2–γ2 fusion (from UniProt P19491-2 22-883) (receptor)”, the stoichiometry N came out at 4.
